Source: PMC3816256, “Sgol2 provides a regulatory platform that coordinates essential cell cycle processes during meiosis I in oocytes” (eLife, 2013)
Where a chain is given by its changes, count along the chain named. Names may count otherwise.

B1: MBP-Sgol2cc-Flag L51A/N54A/R56A (3A) (domain or fragment, mouse, UniProt Q7TSY8 31-117, looked up)
chain: SLASKIKAKILNNSSIFKISAKHANAALARALSKEKENSRRITTEKMQLQKEVEKLNFENTFLRLKLNTLNKKLVEIESHVSNDLLT
notes: In the dimerization assays the second copy (bait) carried a His tag in place of Flag and the same substitutions; also called 3A triple mutation; 3A mutant; source: also His- and Flag-tagged copies co-expressed, in extract; not shown: MBP, N-terminal, kept; Flag, C-terminal, kept
B2: MBP-Sgol2cc-Flag, wild type (mouse Sgol2 coiled coil region 31-117) (domain or fragment, UniProt Q7TSY8 31-117, looked up)
chain: B1 chain with A21L, A24N, A26R
notes: In the dimerization assays the second copy (bait) carried a His tag in place of Flag (MBP-Sgol2cc-His, pET28b backbone; Flag copy in pMAL-c2x); also called MBP-mSgol2cc-Flag; MBP-Sgol2cc-His; source: also His- and Flag-tagged copies co-expressed, in extract; not shown: MBP, N-terminal, kept; Flag, C-terminal, kept
B3: MBP-Sgol2cc-Flag R56A (domain or fragment, mouse, UniProt Q7TSY8 31-117, looked up)
chain: B1 chain with A21L, A24N
notes: In the dimerization assay the second copy (bait) carried a His tag in place of Flag and the same substitution; not shown: MBP, N-terminal, kept; Flag, C-terminal, kept
B4: MBP-Sgol2cc-Flag E82K (domain or fragment, mouse, UniProt Q7TSY8 31-117, looked up)
chain: B1 chain with A21L, A24N, A26R, E52K
notes: as for B3
B5: MBP-Sgol2cc-Flag N55I (domain or fragment, mouse, UniProt Q7TSY8 31-117, looked up)
chain: B1 chain with A21L, A24N, N25I, A26R
notes: as for B3
B6: MBP-Sgol2cc-Flag N54A (domain or fragment, mouse, UniProt Q7TSY8 31-117, looked up)
chain: B1 chain with A21L, A26R
notes: as for B3
B7: MBP-Sgol2cc-Flag E82A (domain or fragment, mouse, UniProt Q7TSY8 31-117, looked up)
chain: B1 chain with A21L, A24N, A26R, E52A
notes: as for B3
B8: MBP-Sgol2cc-Flag L51A (domain or fragment, mouse, UniProt Q7TSY8 31-117, looked up)
chain: B1 chain with A24N, A26R
notes: as for B3

Target: the molecule itself
Experiment: pull-down; MBP-Sgol2cc-His and MBP-Sgol2cc-Flag co-expressed in E. coli; 10 mg of extract on Talon beads 2 hr at 4°C (50 mM sodium phosphate pH 7, 250 mM NaCl, 10% glycerol, 0.02% Triton X-100), washes with 23 mM imidazole; blots with anti-Flag and anti-His; the paper calls it co-immunoprecipitation

Binding result, binds:
B1

Target: the molecule itself
Experiment: pull-down; purified Flag-tagged MBP-Sgol2cc (31-117) pulled down by purified His-tagged MBP-Sgol2cc (31-117) with the same substitution; western blots

Binding result, binds:
B2, B3, B4, B5, B6, B7, B8
